Assay results from patent US20200308290A1 (AbbVie / Abbott, published 2020).
Read-outs that look alike come from different tables or passages of the source.

Legend:
[1] = target: T1, recombinant human CD25 (IL2-Rα) (human, UniProt P01589 22-213, limits assumed); test: SPR (BIAcore), antibody captured by anti-human Fc, soluble human CD25 as analyte, n=3
T1 construct: Bought protein; also called recombinant human IL2-Rα; recombinant soluble human CD25
T1 sequence (looked up): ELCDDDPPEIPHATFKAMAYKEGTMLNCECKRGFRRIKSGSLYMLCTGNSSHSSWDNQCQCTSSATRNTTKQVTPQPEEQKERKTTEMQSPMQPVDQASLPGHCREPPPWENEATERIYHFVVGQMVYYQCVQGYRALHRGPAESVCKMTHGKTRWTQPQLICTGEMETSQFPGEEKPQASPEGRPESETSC
Method: (§1) For this capture approach, 30 μg/ml of GAHFc was immobilized to achieve a high response unit (20,000 RU) on each flow cell on the Research-grade CMS sensor chip using the BIAcore amine coupling reagents (N-ethyl-N′-dimethylamino-propylcarbodiimide, EDC; N-hydroxysuccinimide, NHS; and ethanolamine HCl, pH 8.5). […] A 3 min association phase of CD25 was followed by a 15 min injection of HBS-P running buffer (10 mM HEPES, 150 mM sodium chloride, 0.005% P-20 surfactant, pH 7.4) to monitor dissociation for each binding cycle, with a different CD25 concentration per cycle. The surface was regenerated with 20 mM HCl at 100 μl/min flow rate at the end of each cycle. […] Double referencing was applied in each analysis to eliminate background responses from reference surface and buffer only control (0 nM). […] Each set of experiments was performed three times to assess the standard deviation of the data.
(§2) Modified antibody proteins were tested for binding affinity using a surface plasmon resonance assay format in a BIAcore device. […] Recombinant soluble human CD25 was flowed over the sensor chip and changes in mass were detected.

[2] = target: T2, cynomolgous CD25-HA (cynomolgous monkey, UniProt H6WS54 22-240); test: SPR (BIAcore), antibody captured by anti-human Fc, cynomolgous CD25-HA as analyte, n=3
T2 construct: also called cynomolgous monkey CD25; cmCD25; not shown: exact C-terminal limit of the PDL BioPharma construct
T2 sequence: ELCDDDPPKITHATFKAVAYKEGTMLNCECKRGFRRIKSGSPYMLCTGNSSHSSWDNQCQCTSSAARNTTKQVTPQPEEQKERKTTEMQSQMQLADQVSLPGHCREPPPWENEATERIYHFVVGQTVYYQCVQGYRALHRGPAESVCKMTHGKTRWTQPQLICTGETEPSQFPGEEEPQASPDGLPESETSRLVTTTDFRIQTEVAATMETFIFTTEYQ

[3] = target: T1, recombinant human CD25 (IL2-Rα); test: SPR (BIAcore), antibody captured by anti-human Fc, soluble human CD25 as analyte, n=3; remark: listed apart in the source
Method: as §1, §2

- Kd [1]: 0.357 nM
- Kd [2]: 0.371 nM
- Kd [3]: 0.375 nM
B1: DAC I48M (antibody, IgG1, name in Kabat numbering, V domains shown)
VH: QVQLVQSGAEVKKPGSSVKVSCKASGYTFTSYRMHWVRQAPGQGLEWMGYINPSTGYTEYNQKFKDKATITADESTNTAYMELSSLRSEDTAVYYCARGGGVFDYWGQGTLVTVSS
VL: DIQMTQSPSTLSASVGDRVTITCSASSSISYMHWYQQKPGKAPKLLIYTTSNLASGVPARFSGSGSGTEFTLTISSLQPDDFATYYCHQRSTYPLTFGQGTKVEVK
notes: E.HAT variant, IgG1/kappa
